Results published in paper PMC4564177.

Legend:
Assay in all cases: fluorescence polarisation; competition set-up: constant concentration of isolated PSD95 PDZ domain and Cy5-labeled reference ligand titrated with the unlabeled CRHR1 peptide
[1] = target: isolated PDZ1 domain of PSD95 (UniProt P78352)
[2] = target: isolated PDZ1-2 tandem of PSD95 (UniProt P78352)
[3] = target: isolated PDZ2 domain of PSD95 (UniProt P78352)
[4] = target: isolated PDZ3 domain of PSD95 (UniProt P78352)
Chain of isolated PDZ3 domain of PSD95 (P78352 whole entry, the tested form may be a part): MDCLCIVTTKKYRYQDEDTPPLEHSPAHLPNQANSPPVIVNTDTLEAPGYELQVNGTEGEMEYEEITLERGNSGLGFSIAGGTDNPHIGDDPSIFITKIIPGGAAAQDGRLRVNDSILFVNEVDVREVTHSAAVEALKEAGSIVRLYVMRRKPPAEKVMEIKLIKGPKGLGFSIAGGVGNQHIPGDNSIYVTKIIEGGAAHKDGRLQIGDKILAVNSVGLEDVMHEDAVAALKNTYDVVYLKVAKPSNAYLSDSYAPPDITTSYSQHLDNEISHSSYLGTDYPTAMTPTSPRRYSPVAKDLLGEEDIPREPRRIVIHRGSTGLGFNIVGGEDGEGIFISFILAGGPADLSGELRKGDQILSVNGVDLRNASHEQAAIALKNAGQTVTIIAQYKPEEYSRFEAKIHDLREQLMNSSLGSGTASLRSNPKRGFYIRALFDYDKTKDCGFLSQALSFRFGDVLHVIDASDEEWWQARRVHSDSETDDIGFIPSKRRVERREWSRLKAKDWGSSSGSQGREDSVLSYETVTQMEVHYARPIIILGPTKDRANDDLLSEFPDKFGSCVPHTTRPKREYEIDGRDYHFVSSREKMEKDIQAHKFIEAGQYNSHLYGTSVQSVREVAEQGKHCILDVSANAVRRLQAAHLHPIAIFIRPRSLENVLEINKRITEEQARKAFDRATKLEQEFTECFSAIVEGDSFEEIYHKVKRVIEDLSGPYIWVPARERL

Chain of C-terminal 10 amino acids of CRHR1 (unlabeled CRHR1 peptide) (P35347 whole entry, looked up, tested part not stated): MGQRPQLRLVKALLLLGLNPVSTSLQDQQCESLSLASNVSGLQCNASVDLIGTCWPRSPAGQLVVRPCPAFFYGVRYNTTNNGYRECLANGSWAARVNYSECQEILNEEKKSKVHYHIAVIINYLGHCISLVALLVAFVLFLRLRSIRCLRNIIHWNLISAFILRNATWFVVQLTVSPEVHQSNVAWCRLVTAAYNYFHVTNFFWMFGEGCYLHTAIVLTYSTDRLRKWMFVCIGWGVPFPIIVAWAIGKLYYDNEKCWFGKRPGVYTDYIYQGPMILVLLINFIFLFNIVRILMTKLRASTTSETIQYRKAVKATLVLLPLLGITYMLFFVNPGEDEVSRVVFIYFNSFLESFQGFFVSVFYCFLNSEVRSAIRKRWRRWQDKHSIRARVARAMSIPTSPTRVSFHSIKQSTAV
Chain of isolated PDZ1-2 tandem of PSD95 (P78352 whole entry, the tested form may be a part): as the sequence (P78352 whole entry, the tested form may be a part) above
Chain of isolated PDZ2 domain of PSD95 (P78352 whole entry, the tested form may be a part): as above
Chain of isolated PDZ1 domain of PSD95 (P78352 whole entry, the tested form may be a part): as above

Ki [1]: 77 µM
Ki [2]: 24 µM
Ki [3]: 19 µM
Ki [4]: 48 µM
Substance: C-terminal 10 amino acids of CRHR1 (unlabeled CRHR1 peptide) (from UniProt P35347 406-415)
